For series [1], the target named is recombinant human P450 1A2 (construct 1024) expressed in E. coli (human) (UniProt P05177).
In series [2] the target is recombinant human P450 2E1 (construct 2E1 #18) expressed in E. coli (human) (UniProt P05181). The conditions noted are these: scale: nmol 6-hydroxychlorzoxazone formed min^-1.
The target of series [3] is P450 2C1029 (truncated human cytochrome P450 2C10 expressed in E. coli) (human) (UniProt P11712). To be noted: scale: nmol product formed min^-1.
Series [4] deals with P450 2C9/10 purified from human liver microsomes (human) (UniProt P11712). The conditions noted are these: scale: nmol product formed min^-1.
Series [5] concerns the target P450 2C1028 (modified human cytochrome P450 2C10 expressed in E. coli) (human) (UniProt P11712). To be noted: scale: nmol product formed min^-1.
Substrate in series [6]: c1ccc2c(c1)cc1ccc3cccc4ccc2c1c34
Put plainly: Benzo(a)pyrene 3-hydroxylation in P450 1A1 reconstituted system. It is filed as biochemical, human. To be noted: other: 25 nM P450 1A1, 50 nM NADPH-cytochrome P450 reductase. As for the experimental part:
(§1) FIG. 42. Substrate concentration-dependent benzo(a)pyrene 3-hydroxylation (A) and 7-ethoxyresorufin O-deethylation (B) in a P450 1A1 reconstutited system. Benzo(a)pyrene 3-hydroxylation were assayed with 25 nM P450 1A1 and 50 nM NADPH-cytochrome P450 reductase. 7-Ethoxyresorufin O-deethylation were assayed with 5 nM P450 1A1 and 10 nM NADPH-cytochrome P450 reductase.
(§2) 7-Ethoxyresorufin O-dealkylation (Burke and Mayer, Drug Metab. Dispos. 3:245-253 (1975); Burke and Mayer, Chem.-Biol. Interactions 45:243-258 (1983)) and benzo(a)pyrene 3-hydroxylation (Nebert and Gelboin, J. Biol. Chem. 243:6242-6249 (1968); Guengerich in Principles and Methods of Toxicology, Hayes, A. W., Ed., 777-814, Raven Press, New York (1989)) were determined as described elsewhere. Protein concentrations were estimated using a bicinchoninic acid (BCA) method according to the instructions supplied by the manufacturer (Pierce Chemical Co., Rockford, Ill.).
(§3) Catalytic activities. The purified P450 1A1 protein was examined for catalytic activities in a conventional reconstitution system containing rabbit NADPH-P450 reductase and L-α-1,2-dilauroyl-sn-glycero-3-phosphocholine. P450 1A1 catalyzed benzo(a)pyrene 3-hydroxylation and 7-ethoxyresorufin O-deethylation at rates of 1.7 and 6.2 nmol product formed min^-1 (nmol P450)^-1, respectively (FIGS. 41A,B). […]

Substrate in series [7]: CCOc1ccc2nc3ccc(=O)cc-3oc2c1
Put plainly: 7-Ethoxyresorufin O-deethylation in P450 1A1 reconstituted system. The conditions noted are these: other: 5 nM P450 1A1, 10 nM NADPH-cytochrome P450 reductase. It is filed as biochemical, human. As for the experimental part: as §1, §2, §3

As to “rabbit liver NADPH-P450 reductase (from UniProt P00389) (enzyme)”, the anaerobic reduction of P450 1A2 (rate of reduction, formation of the Fe2+.CO complex) in series [1] was greater than 3 min⁻¹.

On to “human liver cytochrome b5 (from UniProt P00167)”, for which, in series [2], the chlorzoxazone 6-hydroxylation by purified P450 2E1 (Vmax) was determined as 5.56. Also, the tolbutamide hydroxylation, reconstituted system turned out to be 1.77 in series [3], 0.51 in series [4] and 0.57 in series [5].

B1: purified recombinant human cytochrome P450 1A1, N-terminally modified (construct #17, SEQ ID NO: 5), expressed in E. coli (Homo sapiens; L2A) (protein)
chain: AFPISMSATEFLLASVIFCLVFWVIRASRPQVPKGLKNPPGPWGWPLIGHMLTLGKNPHLALSRMSQQYGDVLQIRIGSTPVVVLSGLDTIRQALVRQGDDFKGRPDLYTFTLISNGQSMSFSPDSGPVWAARRRLAQNGLKSFSIASDPASSTSCYLEEHVSKEAEVLISTLQELMAGPGHFNPYRYVVVSVTNVICAICFGRRYDHNHQELLSLVNLNNNFGEVVGSGNPADFIPILRYLPNPSLNAFKDLNEKFYSFMQKMVKEHYKTFEKGHIRDITDSLIEHCQEKQLDENANVQLSDEKIINIVLDLFGAGFDTVTTAISWSLMYLVMNPRVQRKIQEELDTVIGRSRRPRLSDRSHLPYMEAFILETFRHSSFVPFTIPHSTTRDTSLKGFYIPKGRCVFVNQWQINHDQKLWVNPSEFLPERFLTPDGAIDKVLSEKVIIFGMGKRKCIGETIARWEVFLFLAILLQRVEFSVPLGVKVDMTPIYGLTMKHACCEHFQMQLRS
notes: made in house; host or cells: E. coli DH5α, vector pCW
Usually Km stands for the concentration of substrate that gives half-maximal velocity. As for B1, in series [6], the Km stood at 15 µM and the kcat is given as 2.5 nmol product formed min^-1 (nmol P450)^-1. Besides, in series [7], the Km is 0.58 µM and the kcat is 8.3 nmol product formed min^-1 (nmol P450)^-1.

The values are drawn from patent publication US5886157A, “Expression and purification of human cytochrome P450” (Vanderbilt University, priority 1994, dated 1999).
